The values below are quoted from earlier work in paper PMC4101496.

What is called pKa is the negative logarithm of the acid dissociation constant.

This data set deals with Asp14 (UniProt position 14, FGAHADDVEIG). Nature of the data set: kinetics. Particulars: WT enzyme under turnover; pH profiles of Zn2+-BshB and Co2+-BshB reported as identical.

Consider “N-acetylglucosamine-malate deacetylase (BshB) (Bacillus anthracis (per Table 1 accession; the review says BshB from both B. anthracis and B. cereus (BC1534) has been characterised and does not state which gave the pH profile))”, for which the pKa is on record as 8.5.
